Square brackets hold non-standard residues; d marks the D form. Peptide text beside a SMILES is read from it. * marks the point of attachment. DOTA = O=C(O)CN1CCN(CC(=O)O)CCN(CC(=O)*)CCN(CC(=O)O)CC1
Key:
[1] = iv infusion of 150 mg in 250 mL of isotonic glucose in 42 patients; cited from earlier work
Excerpt: Aiming at clinical translation, our interest has been attracted by two clinically certified NEP inhibitors, TO and its prodrug Race. TO is a potent, reversible NEP inhibitor with a relative rapid onset of action, but its water solubility is not ideal for iv injection as a bolus together with the radiopeptide. […] The impact of TO on the bioavailability and tumor uptake of our paradigm compound [^111In-DOTA] ...

[2] = in vivo; parameters: species or system SCID mice; settings: male, SCID, mouse, iv, 10 pmol total peptide, total radioactivity, %ID/g tissue ± SD
Protocol: (§1) Mice had access to drinking water ad libitum until they were euthanized at 4 h pi. Blood samples, organs of interest, and tumors were collected immediately after dissection, weighted, and measured for radioactivity in the gamma counter; only stomachs were emptied of their contents prior to measurements. Biodistribution data were calculated as percent of injected dose per gram tissue (% ID/g) with the aid of suitable standards of the injected dose, using the GraphPad Prism Software (San Diego, CA).
Inocula of freshly harvested A431-CCK2R(+/−) cells (1.6 × 10^7/1.4 × 10^7 cell suspensions in 150 μL saline) were sc-injected in the right and left flanks of the SCID mice (male SCID mice, 6 weeks of age and of 18 ± 2 g body weight on arrival day; NCSR “Demokritos” Animal House). The animals were kept in aseptic conditions for 8 days till well-palpable tumors (0.26 ± 0.08 g) developed at the inoculation sites. At the day of the experiment, the mice received a bolus of [^111In-DOTA]MG11 (100 μL, 37–74 kBq, 10 pmol total peptide, in saline/EtOH 9/1 v/v) through the tail vein, coinjected with (a) vehicle (100 μL; control group, n = 5), (b) three different doses of PA (3 μg, n = 5; 30 μg, n = 4; or 300 μg PA, n = 10, dissolved in 100 μL vehicle), and (c) three different doses of TO (1.5, 15, or 150 μg TO dissolved in 100 μL vehicle, all groups of n = 4). Mice had free access to drinking water until they were sacrificed at 4 h pi, and biodistribution was conducted as described above.

[3] = in vivo; parameters: species or system SCID mice; settings: male, SCID, mouse, iv, 10 pmol total peptide, total radioactivity, %ID/g tissue ± SD; remark: listed apart in the source
Protocol: In-house male SCID mice (NCSR “Demokritos” Animal House) of 6 weeks of age at the time of arrival (18 ± 2 g body weight) were inoculated subcutaneously (sc) in their flanks with a suspension of freshly harvested AR42J cells (1 × 10^7 cells in ~150 μL saline). Animals were kept in aseptic conditions for 14 days when well-palpable tumors developed at the inoculation sites (0.31 ± 0.17 g). At the day of biodistribution, animals received a bolus of [^111In-DOTA]MG11 (100 μL, 37–74 kBq, 10 pmol total peptide, in saline/EtOH 9/1 v/v) through the tail vein, coinjected with (a) vehicle (100 μL; control group, n = 10), (b) PA (100 μL of vehicle containing 300 μg PA; PA group, n = 10), (c) TO (100 μL of vehicle containing 150 μg TO; TO group, n = 4), (d) Lis (100 μL of vehicle containing 100 μg Lis; Lis group, n = 4), (e) PA plus Lis (100 μL vehicle containing 300 μg PA and 100 μg Lis; PA+Lis group, n = 5), or (f) 30–40 min after ip injection of Race (3 mg Race dissolved in 0.025 mL DMSO and freshly mixed with 0.375 mL saline; Race group, n = 4). In a separate animal group, the mice were coinjected with 100 μL vehicle containing both 300 μg PA and 100 μg DG2 [25] to assess non-specific tumor uptake during in situ NEP inhibition (in vivo CCK2R blockade; block group, n = 4).
as §1

O=C(O)CNC(=O)C(CS)Cc1ccccc1 (racemic) [TO, DL-3-mercapto-2-benzylpropanoylglycine]
hemodynamic tolerance in human [1]: excellent hemodynamic tolerance

CSCC[C@H](NC(=O)[C@H](Cc1c[nH]c2ccccc12)NC(=O)CNC(=O)[C@H](Cc1ccc(O)cc1)NC(=O)[C@H](C)NC(=O)[C@@H](CCC(=O)O)NC(=O)CN1CCN(CC(=O)O)CCN(CC(=O)O)CCN(CC(=O)O)CC1)C(=O)N[C@@H](CC(=O)O)C(=O)N[C@@H](Cc1ccccc1)C(N)=O [[^111In-DOTA]MG11, metal not drawn] ({DOTA}-[dE]AYGWMDF-NH2)
tissue uptake at 4 h ([2]; Blood): 0.01 ± 0.01 %ID/g | tissue uptake at 4 h ([2]; Femur): 0.02 ± 0.01 %ID/g | tissue uptake at 4 h ([2]; Heart): 0.02 ± 0.01 %ID/g | tissue uptake at 4 h ([2]; Intestines): 0.83 ± 0.53 %ID/g | tissue uptake at 4 h ([2]; Kidneys): 1.3 ± 0.29 %ID/g | tissue uptake at 4 h ([2]; Liver): 0.11 ± 0.02 %ID/g | tissue uptake at 4 h ([2]; Lung): 0.03 ± 0.01 %ID/g | tissue uptake at 4 h ([2]; Muscle): 0.02 ± 0.01 %ID/g | tissue uptake at 4 h ([2]; Pancreas): 0.05 ± 0.02 %ID/g | tissue uptake at 4 h ([2]; Spleen): 0.06 ± 0.01 %ID/g | tissue uptake at 4 h ([2]; Stomach): 1.32 ± 0.26 %ID/g | tissue uptake at 4 h ([2]; Tumor (+) (A431-CCK2R(+))): 2.5 ± 0.92 %ID/g | tissue uptake at 4 h ([2]; Tumor (−) (A431-CCK2R(−))): 0.12 ± 0.02 %ID/g | tissue uptake at 4 h ([3]; Blood): 0.04 ± 0.01 %ID/g | tissue uptake at 4 h ([3]; Femur): 0.09 ± 0.05 %ID/g | tissue uptake at 4 h ([3]; Heart): 0.05 ± 0.02 %ID/g | tissue uptake at 4 h ([3]; Intestines): 0.89 ± 0.76 %ID/g | tissue uptake at 4 h ([3]; Kidneys): 1.86 ± 0.25 %ID/g | tissue uptake at 4 h ([3]; Liver): 0.13 ± 0.03 %ID/g | tissue uptake at 4 h ([3]; Lung): 0.07 ± 0.02 %ID/g | tissue uptake at 4 h ([3]; Muscle): 0.04 ± 0.01 %ID/g | tissue uptake at 4 h ([3]; Pancreas): 0.11 ± 0.03 %ID/g | tissue uptake at 4 h ([3]; Spleen): 0.17 ± 0.07 %ID/g | tissue uptake at 4 h ([3]; Stomach): 1.53 ± 0.65 %ID/g | tissue uptake at 4 h ([3]; Tumor (AR42J)): 1.82 ± 1.25 %ID/g

— PMC4755954, “Impact of clinically tested NEP/ACE inhibitors on tumor uptake of [^111In-DOTA]MG11—first estimates for clinical translation” (EJNMMI Research, 2016)
